The assay deals with T. laurifolia Δ6-18:0-ACP desaturase, N-11 truncation (Thunbergia laurifolia). Put plainly: crystal structure.

The term stoichiometry N denotes the number of molecules, sites or subunits per partner or assembly. In the case of “T. laurifolia Δ6-18:0-ACP desaturase, N-11 truncation (enzyme)”, the stoichiometry N was found to be 2.

Source of the values: article PMC9335243.
